The values below come from publication PMC7949115, “Poly(ADP-ribose) polymerase 1 regulates mitochondrial DNA repair in an NAD-dependent manner”.

In data set [1] the target is mitochondrial DNA polymerase (Pol γ) holoenzyme, heterotrimer of Pol γA and dimeric Pol γB ΔI4 (UniProt P54098). Nature of the data set: ITC; PARP-1 titrated into Pol γ (5 μM) to a final 10 μM, without DNA; 25 °C; Buffer RX (25 mM Hepes pH 7.5, 140 mM KCl, 5 mM MgCl2, 5% glycerol, 1 mM BME).
Data set [2] deals with T1, PARP1 (PARP-1);Pol gamma A (catalytic subunit);Pol gamma B deltaI4 (accessory subunit) (Homo sapiens?;Homo sapiens?;Homo sapiens?) (UniProt P09874+P54098+Q9UHN1). Nature of the data set: EMSA. The note with it: apparent; PARP1 titrated into Pol gamma (0.5 uM)-DNA (0.75 uM); no NAD+; Buffer RX: 25 mM Hepes pH 7.5, 140 mM KCl, 5 mM MgCl2, 5% glycerol, 1 mM BME; ITC at 25 C; EMSA incubated on ice then room temperature, 4-20% native PAGE in ….
T1 sequence (P09874 whole entry, stated change not applied, chain 1 of 3): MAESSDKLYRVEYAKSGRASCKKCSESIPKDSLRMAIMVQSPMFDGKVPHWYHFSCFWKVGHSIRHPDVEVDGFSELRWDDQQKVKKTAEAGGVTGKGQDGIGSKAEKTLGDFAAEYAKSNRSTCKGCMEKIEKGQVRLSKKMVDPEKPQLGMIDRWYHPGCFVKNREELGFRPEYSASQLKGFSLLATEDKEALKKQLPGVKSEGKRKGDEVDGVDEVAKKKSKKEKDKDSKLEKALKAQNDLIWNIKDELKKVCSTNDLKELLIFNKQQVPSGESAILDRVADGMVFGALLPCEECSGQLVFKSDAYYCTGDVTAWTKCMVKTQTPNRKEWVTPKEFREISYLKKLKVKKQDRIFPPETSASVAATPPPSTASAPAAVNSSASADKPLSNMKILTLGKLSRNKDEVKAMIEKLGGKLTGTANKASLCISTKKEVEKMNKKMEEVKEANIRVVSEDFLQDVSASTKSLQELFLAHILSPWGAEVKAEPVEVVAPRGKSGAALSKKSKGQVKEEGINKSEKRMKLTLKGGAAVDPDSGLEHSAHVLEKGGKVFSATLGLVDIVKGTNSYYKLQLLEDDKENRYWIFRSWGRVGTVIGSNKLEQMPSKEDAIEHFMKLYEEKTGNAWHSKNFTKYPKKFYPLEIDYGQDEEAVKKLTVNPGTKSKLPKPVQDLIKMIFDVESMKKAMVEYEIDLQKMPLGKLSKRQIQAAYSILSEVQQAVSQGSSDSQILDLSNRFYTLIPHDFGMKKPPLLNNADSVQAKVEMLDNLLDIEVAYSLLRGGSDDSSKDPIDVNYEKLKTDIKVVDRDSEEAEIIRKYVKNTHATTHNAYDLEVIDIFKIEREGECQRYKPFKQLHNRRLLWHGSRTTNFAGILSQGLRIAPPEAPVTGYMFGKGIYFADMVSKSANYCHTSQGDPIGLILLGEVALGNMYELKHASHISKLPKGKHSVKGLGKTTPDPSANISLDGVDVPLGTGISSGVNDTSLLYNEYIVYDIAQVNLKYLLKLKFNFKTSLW
T1 sequence (P54098 30-1239, stated change not applied, chain 2 of 3): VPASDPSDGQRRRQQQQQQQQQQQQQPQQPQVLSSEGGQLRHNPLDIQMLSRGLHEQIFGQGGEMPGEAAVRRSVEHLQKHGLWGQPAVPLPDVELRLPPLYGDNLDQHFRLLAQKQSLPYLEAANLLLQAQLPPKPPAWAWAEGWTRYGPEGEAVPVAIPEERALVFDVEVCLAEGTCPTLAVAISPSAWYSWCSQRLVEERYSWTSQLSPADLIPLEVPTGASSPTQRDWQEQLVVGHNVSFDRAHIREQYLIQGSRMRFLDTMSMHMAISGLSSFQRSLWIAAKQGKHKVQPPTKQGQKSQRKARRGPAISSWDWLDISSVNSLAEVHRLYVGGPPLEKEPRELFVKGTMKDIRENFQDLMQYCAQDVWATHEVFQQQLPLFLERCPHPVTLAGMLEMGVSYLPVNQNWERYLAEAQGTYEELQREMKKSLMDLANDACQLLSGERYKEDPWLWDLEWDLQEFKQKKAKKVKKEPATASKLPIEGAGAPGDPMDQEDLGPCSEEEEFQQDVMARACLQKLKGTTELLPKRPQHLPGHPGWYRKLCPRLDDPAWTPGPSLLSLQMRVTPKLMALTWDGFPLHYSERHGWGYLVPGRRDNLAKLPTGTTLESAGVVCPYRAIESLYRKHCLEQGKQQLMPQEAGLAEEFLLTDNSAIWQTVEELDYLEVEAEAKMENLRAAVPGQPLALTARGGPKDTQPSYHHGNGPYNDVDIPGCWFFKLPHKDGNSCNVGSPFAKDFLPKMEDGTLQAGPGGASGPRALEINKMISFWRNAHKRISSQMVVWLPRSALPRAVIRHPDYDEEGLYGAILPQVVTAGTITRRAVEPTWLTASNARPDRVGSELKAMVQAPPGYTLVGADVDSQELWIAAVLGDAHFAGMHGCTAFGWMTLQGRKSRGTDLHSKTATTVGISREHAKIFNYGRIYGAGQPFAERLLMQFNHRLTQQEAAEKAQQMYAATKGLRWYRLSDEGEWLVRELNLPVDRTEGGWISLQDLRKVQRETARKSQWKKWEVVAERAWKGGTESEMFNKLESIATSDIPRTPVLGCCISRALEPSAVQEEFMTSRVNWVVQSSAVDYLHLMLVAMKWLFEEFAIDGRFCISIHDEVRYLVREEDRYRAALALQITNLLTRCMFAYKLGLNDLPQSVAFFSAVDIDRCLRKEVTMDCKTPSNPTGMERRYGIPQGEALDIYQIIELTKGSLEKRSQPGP
T1 sequence (Q9UHN1 whole entry, stated change not applied, chain 3 of 3): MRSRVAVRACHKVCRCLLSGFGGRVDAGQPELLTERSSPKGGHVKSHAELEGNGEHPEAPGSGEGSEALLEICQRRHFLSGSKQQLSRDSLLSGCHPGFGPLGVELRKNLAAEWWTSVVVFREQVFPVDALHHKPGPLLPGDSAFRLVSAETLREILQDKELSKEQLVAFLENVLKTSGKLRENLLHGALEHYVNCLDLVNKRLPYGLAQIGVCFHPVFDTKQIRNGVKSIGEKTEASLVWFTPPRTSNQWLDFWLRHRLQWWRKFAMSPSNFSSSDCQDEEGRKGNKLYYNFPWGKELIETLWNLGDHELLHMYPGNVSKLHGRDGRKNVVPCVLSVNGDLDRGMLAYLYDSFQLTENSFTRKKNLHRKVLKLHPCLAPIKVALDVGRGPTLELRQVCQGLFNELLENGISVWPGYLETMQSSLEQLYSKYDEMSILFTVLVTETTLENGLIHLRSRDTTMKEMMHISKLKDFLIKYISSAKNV

For data set [3], the target named is T1, PARP1 (PARP-1);Pol gamma A (catalytic subunit);Pol gamma B deltaI4 (accessory subunit) (Homo sapiens?;Homo sapiens?;Homo sapiens?). Nature of the data set: ITC. The note with it: Buffer RX: 25 mM Hepes pH 7.5, 140 mM KCl, 5 mM MgCl2, 5% glycerol, 1 mM BME; ITC at 25 C; EMSA incubated on ice then room temperature, 4-20% native PAGE in ….
Data set [4] concerns the target PARP1 (PARP-1) (UniProt P09874 1-1014). The data set can be described thus: ITC; 25 C, 5 mM Mg2+, no NAD+; dH -58.4 kcal/mol; Buffer RX: 25 mM Hepes pH 7.5, 140 mM KCl, 5 mM MgCl2, 5% glycerol, 1 mM BME; ITC at 25 C; EMSA incubated on ice then room temperature, 4-20% native PAGE in Tris-glycine at 0 C. The note with it: protein: recombinant; tags: His (Ni-NTA purified); self-annealed dumbbell, two hairpins, 3-nt gap.

Sequence of PARP1 (PARP-1) (P09874 whole entry): as the sequence (P09874 whole entry, stated change not applied, chain 1 of 3) above

Take “Poly(ADP-ribose) polymerase 1 (from UniProt P09874 1-1014) (enzyme)”: the Kd in data set [1] is > 10000 nM. As for “CTTTTCTGGTGAAAAGCTCGTCGGCAGCGCTTGAGCAGCGGCAGCTGGTGCTGCCGCTGCTCAAGCGCTGCCGAC [d3ntgap (75-nt dumbbell with 3-nt gap)]”, the values for the Kd in data set [2] and in data set [3] were 600 nM and 111 nM, respectively.

B1: d3ntgap (75-nt dumbbell with 3-nt gap) (structured_DNA)
DNA: CTTTTCTGGTGAAAAGCTCGTCGGCAGCGCTTGAGCAGCGGCAGCTGGTGCTGCCGCTGCTCAAGCGCTGCCGAC
With B1, the Kd in data set [4] amounted to 36.4 nM.
